Assay results taken from PMC9495280 (Nature structural & molecular biology, 2022).
Positions count from the first letter of the chain named. Numbers in names are those of the source. Read-outs that look alike come from different tables or passages of the source.

B1: KaiB-I87A (natural protein, Synechococcus elongatus, UniProt Q79PF5 1-102, looked up)
chain: MSPRKTYILKLYVAGNTPNSVRALKTLKNILEVEFQGVYALKVIDVLKNPQLAEEDKILATPTLAKVLPLPVRRIIGDLSDREKVLAGLDLLYGELQDSDDF
B2: KaiC-EA K224A (natural protein)
chain: MTSAEMTSPNNNSEHQAIAKMRTMIEGFDDISHGGLPIGRSTLVSGTSGTGKTLFSIQFLYNGIIEFDEPGVFVTFEETPQDIIKNARSFGWDLAKLVDEGKLFILDASPDPEGQEVVGGFDLSALIERINYAIQKYRARRVSIDSVTSVFQQYDASSVVRRELFRLVARLKQIGATTVMTTERIEEYGPIARYGVEEFVSDNVVILRNVLEGERRRRTLEILALRGTSHMKGEYPFTITDHGINIFPLGAMRLTQRSSNVRVSSGVVRLDEMCGGGFFKDSIILATGATGTGKTLLVSRFVENACANKERAILFAYEESRAQLLRNAYSWGMDFEEMERQNLLKIVCAYPESAGLEDHLQIIKSEINDFKPARIAIDSLSALARGVSNNAFRQFVIGVTGYAKQEEITGLFTNTSDQFMGAHSITDSHIEAITDTIILLQYVEIRGEMSRAINVFKMRGSWHDKAIREFMISDKGPDIKDSFRNFERIISGSPTRITVDEKSELSRIVRGVQEKGPES
B3: nighttime KaiC R216A (natural protein)
chain: B2 chain with R216A, A224K
B4: nighttime KaiC R217A (natural protein)
chain: B2 chain with R217A, A224K
B5: nighttime KaiC H230A (natural protein)
chain: B2 chain with A224K, H230A
B6: KaiC-S431A-T432E (natural protein, Synechococcus elongatus)
chain: B2 chain with A224K, E431A, A432E
B7: nighttime KaiC R226A (natural protein)
chain: B2 chain with A224K, R226A
B8: KaiC-S431E-T432A (natural protein, Synechococcus elongatus)
chain: B2 chain with A224K
B9: daytime KaiC-K457A (natural protein)
chain: B2 chain with A224K, E431A, A432E, K457A
B10: nighttime KaiC-K457A (natural protein)
chain: B2 chain with A224K, K457A
B11: nighttime KaiC I430G (natural protein)
chain: B2 chain with A224K, I430G

What was measured:
KaiC-S431E-T432A = target: B8; assay: fluorescence polarisation
[1] = target: fluorescently labeled KaiB (Synechococcus elongatus) (UniProt Q79PF5); assay: fluorescence polarisation
cryo-EM structure [2] = target: the molecule itself; assay: cryo-EM structure
cryo-EM structure [3] = target: the molecule itself; assay: cryo-EM structure; remark: listed apart in the source

| Kd [1] [µM] | Binder | further results |
| --- | --- | --- |
|  | B1 | binding result (KaiC-S431E-T432A): binds |
| 4.6 | B2 |  |
| > 25 | B3 |  |
| > 13 | B4 | KaiB cooperativity index (fsKaiB as secondary titrant) [1]: 1.6 |
| 5.9 | B5 |  |
| > 43 | B6 | stoichiometry N (cryo-EM structure [2]): 6 |
| > 38 | B7 |  |
|  | B8 | stoichiometry N (cryo-EM structure [3]): 6 |
| 7.3 | B9 |  |
| 4.6 | B10 |  |
| > 25 | B11 |  |
